Assay results reported in PMC10080726 (Molecular cell, 2023).
No end group written: not given here.

Assays:
KLHDC2 SBD = target: T1, KLHDC2 SBD (Homo sapiens, UniProt Q9Y2U9); experiment: SPR binding to immobilised KLHDC2 SBD; conditions: for Kd: 10xHis-KLHDC2 SBD, pH 7.4, 20°C, triplicate, 1-site model, substrates (Figure S1C)
T1 sequence (Q9Y2U9 15-361): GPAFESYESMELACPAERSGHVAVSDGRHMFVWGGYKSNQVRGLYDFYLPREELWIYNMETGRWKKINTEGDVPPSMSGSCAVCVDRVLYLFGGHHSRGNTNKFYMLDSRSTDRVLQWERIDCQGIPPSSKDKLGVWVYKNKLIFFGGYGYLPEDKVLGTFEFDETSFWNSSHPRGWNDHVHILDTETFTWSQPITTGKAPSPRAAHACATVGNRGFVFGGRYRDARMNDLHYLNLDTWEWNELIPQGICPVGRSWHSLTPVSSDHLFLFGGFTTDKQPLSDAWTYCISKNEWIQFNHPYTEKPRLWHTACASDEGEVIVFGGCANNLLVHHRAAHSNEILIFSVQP

[1] = target: KLHDC2-EloBC substrate receptor complex (full-length WT KLHDC2, EloB, EloC) (UniProt Q9Y2U9); experiment: SEC
[2] = target: KLHDC2-EloBC substrate receptor complex (full-length WT KLHDC2, EloB, EloC) (UniProt Q9Y2U9); experiment: AUC
[3] = target: 10xHis-KLHDC2 SBD (residues 15-361) (human) (UniProt Q9Y2U9); experiment: SPR
KLHDC2-EloBC = experiment: Native gel electrophoresis, substrate; format: binding, human
[4] = target: KLHDC3-EloBC complex (full-length KLHDC3, EloB, EloC) (UniProt Q9BQ90)
neddylated CRL2^KLHDC2 = experiment: Pulse-chase ubiquitylation of substrates or KLHDC2; format: biochemical, human
CUL2-RBX1 = CUL2-RBX1 neddylation pulse-chase; format: biochemical, human; conditions: tetramer supplied with substrate, without CAND1
crystal structure = target: the molecule itself; experiment: crystal structure
CUL2 in 293T cells = experiment: FLAG immunoprecipitation of KLHDC2, associated CUL2 neddylation state; format: cell-based, human; conditions: FLAG-KLHDC2, no treatment
KLHDC2 in U2OS cells [5] = experiment: K48-ubiquitylation of FLAG-KLHDC2 in U2OS cells; format: cell-based, human; conditions: Bortezomib 1 μM, five hours, K48 antibody
NEDD8 in U2OS cells = experiment: Steady-state NEDD8 levels in U2OS cells; conditions: ectopic expression in KLHDC2 KO U2OS
KLHDC2 in U2OS cells [6] = experiment: Steady-state KLHDC2 protein levels in U2OS cells
[7] = system: USP1 N-fragment in U2OS cells; experiment: Steady-state USP1 N-fragment levels in U2OS cells; conditions: exogenous rescue in KLHDC2 KO U2OS, n=3 technical replicates
[8] = target: T2, KLHDC2 substrate-binding domain (SBD), residues 15-361 (human, UniProt Q9Y2U9 15-361); experiment: crystal structure
T2 sequence (looked up): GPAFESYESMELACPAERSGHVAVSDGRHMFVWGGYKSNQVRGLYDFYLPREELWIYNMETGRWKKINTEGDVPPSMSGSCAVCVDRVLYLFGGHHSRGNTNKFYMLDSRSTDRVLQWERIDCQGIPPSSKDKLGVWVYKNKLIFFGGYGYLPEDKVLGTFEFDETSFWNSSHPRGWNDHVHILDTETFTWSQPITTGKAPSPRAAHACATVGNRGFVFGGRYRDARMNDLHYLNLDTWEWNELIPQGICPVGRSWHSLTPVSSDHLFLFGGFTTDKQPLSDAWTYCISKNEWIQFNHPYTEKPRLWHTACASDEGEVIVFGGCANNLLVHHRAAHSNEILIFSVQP

[9] = target: T3, 10xHis-KLHDC2 SBD (residues 15-361) (human, UniProt Q9Y2U9 15-361); experiment: SPR
T3 sequence (looked up): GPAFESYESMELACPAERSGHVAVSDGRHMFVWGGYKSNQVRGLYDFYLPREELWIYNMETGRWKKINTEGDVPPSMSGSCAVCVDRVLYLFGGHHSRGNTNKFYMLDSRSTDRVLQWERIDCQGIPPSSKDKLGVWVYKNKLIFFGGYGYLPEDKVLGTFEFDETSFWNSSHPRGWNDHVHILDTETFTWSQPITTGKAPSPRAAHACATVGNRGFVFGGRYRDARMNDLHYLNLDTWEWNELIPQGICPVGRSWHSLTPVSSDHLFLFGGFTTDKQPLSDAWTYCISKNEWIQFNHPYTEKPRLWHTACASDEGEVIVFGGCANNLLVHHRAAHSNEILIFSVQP

CRL2^KLHDC2 = experiment: Pre-steady state rapid quench flow ubiquitylation; format: biochemical, human; conditions: KLHDC2 -KK, UBE2R2, one-hour equilibration of substrate with E3, triplicate

For “GFP-RIC8B: C-terminal 23 amino-acids of RIC8B appended to the C-terminus of GFP ({GFP}-TITPLEEALNQYSVIEETSSDTD)”, the Kd (KLHDC2 SBD) was 460 nM.

Work on “KLHDC2-EloBC substrate receptor complex (full-length WT KLHDC2, EloB, EloC) (from UniProt Q9Y2U9 1-406; Q15370 1-104; Q15369 17-112)” yielded a Kd [1] of 0.18 to 0.26 nM and a Kd [2] of 0.15 nM.

Work on “WT KLHDC2-derived peptide (C-terminus of KLHDC2) used in SPR” yielded a Kd [3] of 1400 nM.

For CUL2-RBX1: CUL2-RBX1 complex, the “required pre-incubation time for KLHDC2-FAM-SELK complex formation” value (KLHDC2-EloBC; with CUL2-RBX1) was less than 3 h.

“NQRFGSNNTSGS-OH [WT KLHDC2-derived peptide]” was tested, and the “affinity lower than physiological substrates” value (KLHDC2 SBD; vs peptides from physiological substrates USP1 and GFP-RIC8B) was 3–5 fold.

“KLHDC3-EloBC complex (full-length KLHDC3, EloB, EloC) (from UniProt Q9BQ90 1-382; Q15370 1-104; Q15369 17-112)” showed a stoichiometry N [4] of 4.

For “KLHDC2-EloBC: full-length KLHDC2-EloBC substrate receptor complex, tetrameric”, the “auto-ubiquitylation of KLHDC2” value (neddylated CRL2^KLHDC2; UB~UBCH5B, WT or C-degron mutants, with or without SELK) was “subject to auto-ubiquitylation”, the “FAM-SELK binding (in words)” value (KLHDC2-EloBC; native gel, 2.5 μM KLHDC2, pH 7.5) was “a single band appeared” and the “rate of CUL2-RBX1 neddylation (in words)” value (CUL2-RBX1) was “greatest”.

B1: KLHDC2, full length (the KLHDC2 chain of the KLHDC2-EloBC crystal structure) (natural protein, human, UniProt Q9Y2U9 1-406, looked up)
chain: MADGNEDLRADDLPGPAFESYESMELACPAERSGHVAVSDGRHMFVWGGYKSNQVRGLYDFYLPREELWIYNMETGRWKKINTEGDVPPSMSGSCAVCVDRVLYLFGGHHSRGNTNKFYMLDSRSTDRVLQWERIDCQGIPPSSKDKLGVWVYKNKLIFFGGYGYLPEDKVLGTFEFDETSFWNSSHPRGWNDHVHILDTETFTWSQPITTGKAPSPRAAHACATVGNRGFVFGGRYRDARMNDLHYLNLDTWEWNELIPQGICPVGRSWHSLTPVSSDHLFLFGGFTTDKQPLSDAWTYCISKNEWIQFNHPYTEKPRLWHTACASDEGEVIVFGGCANNLLVHHRAAHSNEILIFSVQPKSLVRLSLEAVICFKEMLANSWNCLPKHLLHSVNQRFGSNNTSGS
B1: binds (crystal structure).

B2: WT KLHDC2: FLAG-tagged WT KLHDC2 expressed in cells; KLHDC2 in CRL2^KLHDC2 (protein)
chain: MADGNEDLRADDLPGPAFESYESMELACPAERSGHVAVSDGRHMFVWGGYKSNQVRGLYDFYLPREELWIYNMETGRWKKINTEGDVPPSMSGSCAVCVDRVLYLFGGHHSRGNTNKFYMLDSRSTDRVLQWERIDCQGIPPSSKDKLGVWVYKNKLIFFGGYGYLPEDKVLGTFEFDETSFWNSSHPRGWNDHVHILDTETFTWSQPITTGKAPSPRAAHACATVGNRGFVFGGRYRDARMNDLHYLNLDTWEWNELIPQGICPVGRSWHSLTPVSSDHLFLFGGFTTDKQPLSDAWTYCISKNEWIQFNHPYTEKPRLWHTACASDEGEVIVFGGCANNLLVHHRAAHSNEILIFSVQPKSLVRLSLEAVICFKEMLANSWNCLPKHLLHSVNQRFGSNNTSGS
modifications: left off: FLAG, N-terminal, kept
B2 was tested, and the “auto-ubiquitylation of KLHDC2” value (neddylated CRL2^KLHDC2; no substrate, UB~UBE2R2) was “rapidly ubiquitylated”, the “co-precipitated CUL2 neddylation state (in words)” value (CUL2 in 293T cells) was “co-precipitated a mixture of unmodified and neddylated CUL2” and the “ubiquitylation of KLHDC2 (in words)” value (KLHDC2 in U2OS cells [5]) was “more ubiquitylated than their monomeric counterparts”. For the same molecule, the “NEDD8 levels (in words)” value (NEDD8 in U2OS cells) was “reduced the levels of unconjugated NEDD8”, the “exogenous expression relative to endogenous KLHDC2” value (KLHDC2 in U2OS cells [6]; U2OS) was “roughly 10 -fold” and the “KLHDC2 protein level (in words)” value (KLHDC2 in U2OS cells [6]; stable FLAG-KLHDC2 in KLHDC2 KO U2OS) was “significantly lower than that of CΔ6 and -KK monomers”. For the same molecule, the “reduction of USP1 N-fragment levels” value [7] was ~ 4 fold.

NQRFGSNNTSGS (peptide, UniProt Q9Y2U9 395-406, looked up) [12mer peptide derived from the C-terminus of KLHDC2]: binds [8].

B3: USP1 fragment (residues 592-671) (domain or fragment, UniProt O94782 592-671, looked up)
chain: GHYTASVKVTDLNSLELDKGNFVVDQMCEIGKPEPLNEEEARGVVENYNDEEVSIRVGGNTQPSKVLNKKNVEAIGLLGG
Work on B3 yielded a Kd [9] of 264 nM.

B4: FAM-USP1: fluorescein-labeled USP1 fragment (protein)
chain: GHYTASVKVTDLNSLELDKGNFVVDQMCEIGKPEPLNEEEARGVVENYNDEEVSIRVGGNTQPSKVLNKKNVEAIGLLGG
modifications: fluorescein on the amino-terminus (sortase-mediated ligation of FAM-(PEG)5-LPETGG peptide); left off: GST, N-terminal, cleaved
In the case of B4, the “complex formation with KLHDC2-EloBC (in words)” value (KLHDC2-EloBC; 20-fold molar excess of ligand, 4-hour pre-incubation) is reported as “only minimal interaction”.

B5: USP1: USP1 fragment, residues 592–671 (protein)
chain: GHYTASVKVTDLNSLELDKGNFVVDQMCEIGKPEPLNEEEARGVVENYNDEEVSIRVGGNTQPSKVLNKKNVEAIGLLGG
modifications: left off: GST, N-terminal, cleaved
In the case of B5, the Kd (KLHDC2 SBD) is reported as 260 nM, the “pre-incubation required for maximal ubiquitylation (in words)” value (neddylated CRL2^KLHDC2; KLHDC2 -KK) is reported as “required no pre-incubation” and the “*UB transfer to substrate (in words)” value (neddylated CRL2^KLHDC2; UB~UBE2R2, neddylated CRL2^KLHDC2 (WT), 0.6 μM substrate, pH 7.5, n=3) is reported as “preferentially promotes *UB ligation to SELK or USP1”. For the same molecule, the “rate of substrate modification kobs” value (CRL2^KLHDC2) was 0.21 s⁻¹.
